Substitutions are numbered along the chain they refer to.
Key:
[1] = target: T1, Recombinant canine IL23 (single chain p40 + linker + p19, Avitag, polyHis tag) (canine); assay: Biacore affinity assay ('Active' = specific binding to canine IL23)
T1 construct: Single chain p40-linker-p19 with a tag for site specific biotinylation and a polyHis tag, expressed in CHO cells as a monomeric protein; also called canine IL23 polypeptide
T1 chain: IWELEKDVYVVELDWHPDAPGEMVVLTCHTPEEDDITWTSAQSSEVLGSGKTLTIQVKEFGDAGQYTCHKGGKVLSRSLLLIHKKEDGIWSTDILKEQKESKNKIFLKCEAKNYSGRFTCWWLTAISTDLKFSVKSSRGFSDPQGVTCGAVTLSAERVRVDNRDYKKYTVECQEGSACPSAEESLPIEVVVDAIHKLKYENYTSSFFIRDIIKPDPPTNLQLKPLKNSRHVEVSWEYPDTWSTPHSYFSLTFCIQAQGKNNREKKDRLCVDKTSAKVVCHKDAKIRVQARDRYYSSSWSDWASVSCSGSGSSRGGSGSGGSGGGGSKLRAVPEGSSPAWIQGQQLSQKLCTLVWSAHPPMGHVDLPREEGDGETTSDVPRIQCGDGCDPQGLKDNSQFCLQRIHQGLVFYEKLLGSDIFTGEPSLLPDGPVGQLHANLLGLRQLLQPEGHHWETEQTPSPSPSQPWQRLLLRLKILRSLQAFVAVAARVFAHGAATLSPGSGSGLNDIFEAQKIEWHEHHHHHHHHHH

[2] = target: T2, Canine TNF-alpha (Sino Biologicals) (canine, UniProt P51742 77-233); assay: SPR, Biacore 8K, antibody captured on Protein A chip, antigen as analyte, 25 C
T2 construct: Bought protein; also called Canine TNFα
T2 sequence (P51742 77-233 limits assumed): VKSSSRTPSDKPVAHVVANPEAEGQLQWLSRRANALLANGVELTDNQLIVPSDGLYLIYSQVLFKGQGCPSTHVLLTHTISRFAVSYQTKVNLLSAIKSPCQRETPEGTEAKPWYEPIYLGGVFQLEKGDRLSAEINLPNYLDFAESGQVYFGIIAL
Protocol: This study was performed to measure the binding affinity of antibodies to antigens using a Biacore 8K.
(§1) All the data were processed using the Biacore 8K Evaluation software version 3.0. Flow cell 1 and blank injection of buffer in each cycle were used as double reference for Response Units subtraction.

[3] = target: T1, Recombinant canine IL23 (single chain …); assay: as above
Protocol: (§2) This study was performed to measure the binding affinity of anti-IL23 antibodies to IL23 and p40 antigens using a Biacore 8K.
as §1

[4] = target: T3, Canine p40 polypeptide (canine, UniProt Q28268 23-329); assay: as above
T3 sequence (looked up): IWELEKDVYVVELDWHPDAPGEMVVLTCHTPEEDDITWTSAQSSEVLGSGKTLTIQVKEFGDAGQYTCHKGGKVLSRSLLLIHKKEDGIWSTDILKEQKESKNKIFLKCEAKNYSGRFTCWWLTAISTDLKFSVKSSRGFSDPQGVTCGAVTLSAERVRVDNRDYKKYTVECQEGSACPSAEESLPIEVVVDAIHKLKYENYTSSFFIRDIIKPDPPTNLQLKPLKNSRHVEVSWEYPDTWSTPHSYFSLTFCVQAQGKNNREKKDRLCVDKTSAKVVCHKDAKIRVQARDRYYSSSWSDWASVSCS
Protocol: as §2, §1

B1: Anti-IL23 C340 VL / caninized VH variant V1 (antibody, V domains shown)
VH: EVQLVQSGAEVKKPGASVKVSCKGSGYSFTTYWLGWVRQAPGAGLDWMGIMSPVDSDIRYAGKFQGQVTMSVDTSTSTAYMELSSLRAGDIAVYYCARRRPGQGYFDFWGQGTLVTVSS
VL: DIQMTQSPSSLSASVGDRVTITCRASQGISSWLAWYQQKPEKAPKSLIYAASSLQSGVPSRFSGSGSGTDFTLTISSLQPEDFATYYCQQYNIYPYTFGQGTKLEIK
notes: also called VL C340 + VH V1
B1: binds [1].

B2: Anti-IL23 caninized VL variant V2 / caninized VH variant V6 (antibody, human IgG1, V domains shown)
VH: EVQLVESGGDLVKPGGSLRLSCKGSGYSFTTYWLGWVRQAPGKGLQWIGIMSPVDSDIRYADAVKGRFTVSRDNAKRTLYLQMNSLRAEDTAIYYCARRRPGQGYFDFWGQGTLVTVSS
VL: DIVMTQTPLSLSVSPGEPASISCRASQGISSWLAWYLQKAGQSPRLLPYAASSLQSGVPDRFSGSGSGTDFTLRIGRVEAEDAGIYYCQQYNIYPYTFGQGTRLEVR
notes: also called VL V2 + VH V6
B2: binds [1].

B3: Caninized anti-IL23 with VL domain V2.1 and VH domain V1.1 (antibody, V domains shown)
VH: B1 VH with A61S, G62P, K63S
VL: B2 VL with L37Q, G41E, Q42K, S43A, R45K, L46S, P48I
notes: also called VL V2.1 + VH V1.1; exemplary caninized anti-IL23
B3: binds [1].

B4: Caninized anti-TNFα D2E7 antibody (caninized VL + canine kappa constant region; caninized VH + canine IgG-B constant region) (antibody, V domains shown)
VH: EVQLVESGGDLVKPAESLRLSCVASGFTFDDYAMHWVRQAPGKGLEWVSAITWNSGHIDYADSVEGRFTISRDNARNTLYLQMNSLRAEDTAVYYCAKVSYLSTASSLDYWGQGTLVTVSS
VL: DIVMTQTPLSLSVSPGEPASISCRASQGIRNYLAWYQQKPGKAPKLLIYAASTLQSGVPDRFSGSGSGTDFTLRIGRVEAEDAGIYYCQRYNRAPYTFGQGTRLEVRR
notes: Expressed in Expi293F cells, 150 kDa, captured on a Protein A chip; also called Caninized Anti-TNF-VH-VL
In the case of B4, the Kd [2] is reported as 3.91 nM, the koff [2] is reported as 0.000818 s⁻¹ and the kon [2] is reported as 209000 M⁻¹ s⁻¹.

B5: Chimeric anti-IL23 antibody (clone C340 VL and VH domains fused to canine kappa light chain constant region and canine IgG-B constant region) (antibody, V domains shown)
VH: EVQLVQSGAEVKKPGESLKISCKGSGYSFTTYWLGWVRQMPGKGLDWIGIMSPVDSDIRYSPSFQGQVTMSVDKSITTAYLQWNSLKASDTAMYYCARRRPGQGYFDFWGQGTLVTVSS
VL: DIQMTQSPSSLSASVGDRVTITCRASQGISSWLAWYQQKPEKAPKSLIYAASSLQSGVPSRFSGSGSGTDFTLTISSLQPEDFATYYCQQYNIYPYTFGQGTKLEIKR
notes: also called Anti-IL23-VH-VL; Anti-IL23 (full length IgG form)
Work on B5 yielded a Kd [3] of 0.58 nM, a koff [3] of 0.00338 s⁻¹ and a kon [3] of 5.83e+06 M⁻¹ s⁻¹. For the same binder, the Kd [4] was 1.02 nM, the koff [4] was 0.00478 s⁻¹ and the kon [4] was 4.68e+06 M⁻¹ s⁻¹.
